Publication PMC6205948, “Phage-Borne Depolymerases Decrease Klebsiella pneumoniae Resistance to Innate Defense Mechanisms” (Frontiers in Microbiology, 2018)

How the values were obtained:
[1] = molecular target: KP32gp37 (Klebsiella phage KP32) (UniProt D1L2X0); test: SEC-MALS; purified protein in solution, native conditions; SEC coupled to a miniDAWN TREOS MALS detector and Optilab rEX; proteins dialyzed against PBS pH 7.4
[2] = molecular target: the molecule itself; test: as above

Chain of KP32gp37 (D1L2X0 1-770 limits assumed): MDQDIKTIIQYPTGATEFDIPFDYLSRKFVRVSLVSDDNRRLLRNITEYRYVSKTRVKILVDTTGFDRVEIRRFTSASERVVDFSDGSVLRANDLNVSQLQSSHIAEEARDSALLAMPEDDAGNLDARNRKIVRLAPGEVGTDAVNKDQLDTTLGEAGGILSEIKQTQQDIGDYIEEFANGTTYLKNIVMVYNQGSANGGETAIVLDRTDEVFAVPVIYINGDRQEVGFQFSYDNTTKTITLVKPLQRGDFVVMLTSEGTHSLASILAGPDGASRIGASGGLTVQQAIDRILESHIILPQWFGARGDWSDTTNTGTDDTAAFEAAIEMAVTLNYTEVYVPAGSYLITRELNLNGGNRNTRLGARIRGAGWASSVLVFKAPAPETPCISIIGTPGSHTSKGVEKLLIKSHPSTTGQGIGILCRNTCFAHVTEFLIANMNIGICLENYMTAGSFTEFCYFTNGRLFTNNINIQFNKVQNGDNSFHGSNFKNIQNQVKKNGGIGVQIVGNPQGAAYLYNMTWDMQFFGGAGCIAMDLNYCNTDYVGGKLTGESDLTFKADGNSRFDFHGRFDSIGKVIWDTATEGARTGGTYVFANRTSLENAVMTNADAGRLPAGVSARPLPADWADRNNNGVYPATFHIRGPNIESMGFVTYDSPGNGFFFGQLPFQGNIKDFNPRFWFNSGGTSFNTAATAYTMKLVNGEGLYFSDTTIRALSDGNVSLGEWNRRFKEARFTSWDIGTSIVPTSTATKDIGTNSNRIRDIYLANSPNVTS

Molecule | stoichiometry N [1] | stoichiometry N [2]
KP32gp37 (from UniProt D1L2X0 1-869) (enzyme) | 3 | –
KP32gp38 (enzyme, Klebsiella phage KP32, UniProt D1L2X1 1-576, looked up, open reading frame cloned into pEXP5-CT/TOPO; runs at about 62 kDa on SDS-PAGE; The vector pEXP5-CT/TOPO adds a C-terminal His6 tag (surmised from the vector's name); also called hypothetical protein; K21 depolymerase) MLDNFNQPKGSTIGVLKDGRTIQEAFDSLPRLESFSGSTATDKLRAAITLGVSEVAIGPVEGNGGRPYEFGDVVIPYPLRIVGCGSQGINVTKGTVLKRSAGASFMFHFTGEGQAQRPMGGGLFNINLNGDTATALGDIIKVTQWSYFKANNCAFQNMAGWGIRLKDVMESNISGNLFRRLGGPSGGGILFDDVRSAVTDNVNNLHIEDNTFALMSGPWIGSTANSNPDLIWIVRNKFEFDGTPAAPNTVDSYVLDFQQLSRAFIQDNGFTHFTTERNRYVGVLRVGATAVGTIKFEDNLLFACESAGLIAGGIVVSRGNVNNQGSATTAIKQFTNTSSKLCKLERVINVQSNGNVSVGQQILPDGYINMAELPGNTRLPSEYDADGETTSVLRVPANTQVRQWSVPKMYKDGLTVTKVTVRAKGAAAGAILSLQSGSTVLSTKSIDAGVWKNYVFYVKANQLQETLQLRNTGTADVLADGMVFGKVDYIDWDFAIAPGTLAAGAKYTTPNQSYLDVAGMRVQAVSIPMFDGPTTGLQVWVEATSANGSFVVVMKNDTGSELVTTVTRCRVRAFVS | – | 3
